This note sets out measurements from patent publication US20040009147A1 (Human Genome Sciences, published 2004).

The test concerns the target T1, mouse AIM II (LIGHT), membrane-bound (mouse, UniProt Q9QYH9 1-239).
T1 construct: whole, on cells; On human 293 cells transfected with pmAIM II (flow cytometry); also called mAIM II; pmAIM II-transfected 293 cells
T1 sequence (looked up): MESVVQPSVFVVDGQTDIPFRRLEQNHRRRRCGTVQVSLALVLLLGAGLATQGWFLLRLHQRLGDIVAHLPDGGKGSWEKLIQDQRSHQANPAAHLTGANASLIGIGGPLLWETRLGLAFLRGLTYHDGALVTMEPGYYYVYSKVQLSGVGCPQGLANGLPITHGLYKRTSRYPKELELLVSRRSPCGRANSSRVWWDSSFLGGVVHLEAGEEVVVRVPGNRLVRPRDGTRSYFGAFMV
The test is described as follows: flow cytometry, mouse LTβR-Ig (1 µg in 50 µl) on 293 cells transfected with pmAIM II, FITC goat anti-human IgG. The method, then:
Flow cytometric analysis. Human 293 cells (1×10⁶ cells) were transfected with either mouse AIM II pcDNA3 vector (10μg) or mock vector (10 μg) by calcium phosphate methods. After 30 hr of transfection, 293 cells were harvested and stained with 1 μg of mouse LTβR-Ig or the anti-AIM II antibody in 50 μl of PBS supplemented with 5% FBS and 0.02% azide for 30 min at 4° C. The cells were then washed and further incubated with FITC-conjugated anti-human IgG or anti-rabbit IgG for 30 min at 4° C., respectively. Fluorescence was analyzed by a FACSCalibur flow cytometry (Becton Dickinson, Mountain View, Calif.) with Cell Quest software (Becton Dickinson).
(In general: Flow cytometry measures light scatter and fluorescence of single cells or particles in a stream.)

B1: mouse LTβR-Ig fusion protein (mouse LTβR extracellular domain fused to the Fc portion of human IgG1) (Fc fusion, UniProt P50284 31-223, looked up)
chain: QLVPPYRIENQTCWDQDKEYYEPMHDVCCSRCPPGEFVFAVCSRSQDTVCKTCPHNSYNEHWNHLSTCQLCRPCDIVLGFEEVAPCTSDRKAECRCQPGMSCVYLDNECVHCEEERLVLCQPGTEAEVTDEIMDTDVNCVPCKPGHFQNTSSPRARCQPHTRCEIQGLVEAAPGTSYSDTICKNPPEPGAMLL
notes: extracellular domain; Made in BHK/VP16 cells, purified on Protein A; not shown: Fc portion of human IgG1 (vector pX58)
For B1, the binding result is listed as “binds”.
